Source: patent US20190276496A1 (FUNDACI N PARA LA INVESTIGACI N M DICA APLICADA, published 2019)
Where no end group is shown, it is not given here. [ ]: non-standard residue; d: D form.

T1: Foxp3 in murine CD25+ Treg cells (mouse, UniProt Q99JB6 1-417)
T1 sequence (looked up): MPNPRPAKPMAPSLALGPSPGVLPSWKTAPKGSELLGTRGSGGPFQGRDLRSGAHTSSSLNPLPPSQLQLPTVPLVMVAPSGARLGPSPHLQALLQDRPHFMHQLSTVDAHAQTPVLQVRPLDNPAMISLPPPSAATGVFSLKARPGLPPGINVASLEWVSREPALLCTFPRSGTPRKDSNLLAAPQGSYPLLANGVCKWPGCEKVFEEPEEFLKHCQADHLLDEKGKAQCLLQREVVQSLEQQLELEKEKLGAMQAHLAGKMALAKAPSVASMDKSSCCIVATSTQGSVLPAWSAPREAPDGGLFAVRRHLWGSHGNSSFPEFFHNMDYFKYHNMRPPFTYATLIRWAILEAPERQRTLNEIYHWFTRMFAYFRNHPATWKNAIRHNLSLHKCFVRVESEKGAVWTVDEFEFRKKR


Columns and labels:
[1] = target: T1, Foxp3 in murine CD25+ Treg cells; experiment: cell-based or functional assay
[2] = target: human FOXP3 tagged with 6 histidines at the C terminus (human) (UniProt Q9BZS1); experiment: SPR (ProteOn XPR36), FOXP3-6His immobilized on GLM chip, peptide 1-20 µM injected; ratio to p60 (SEQ ID NO: 1)
[3] = target: human FOXP3 tagged with 6 histidines at the C terminus (human) (UniProt Q9BZS1); experiment: AlphaScreen competition, His-tagged FOXP3 (400 nM) / GST-tagged FOXP3 (40 nM, competitor); peptide at 100 µM
[4] = target: GST-FOXP3 (GST fused to the isoform A from human FOXP3 gene) (human) [GST: P08515]; experiment: AlphaScreen competition, GST-FOXP3 (100 nM) / His-Runx1 (46 nM, competitor); peptide at 100 µM
[5] = target: T1, Foxp3 in murine CD25+ Treg cells; experiment: cell-based or functional assay; remark: listed apart in the source
[6] = target: GST-FOXP3 (GST fused to the isoform A from human FOXP3 gene) (human) [GST: P08515]; experiment: AlphaScreen competition, GST-FOXP3 (100 nM) / His-Runx1 (46 nM, competitor); peptide at 2.5 µM
[7] = target: human FOXP3 tagged with 6 histidines at the C terminus (human) (UniProt Q9BZS1); experiment: AlphaScreen competition, His-tagged FOXP3 (400 nM) / GST-tagged FOXP3 (40 nM, competitor); peptide at 20 µM

GST-FOXP3 (GST fused to the isoform A from human FOXP3 gene) (human) [GST: P08515], sequence (P08515 1-218, tags or fused parts left off): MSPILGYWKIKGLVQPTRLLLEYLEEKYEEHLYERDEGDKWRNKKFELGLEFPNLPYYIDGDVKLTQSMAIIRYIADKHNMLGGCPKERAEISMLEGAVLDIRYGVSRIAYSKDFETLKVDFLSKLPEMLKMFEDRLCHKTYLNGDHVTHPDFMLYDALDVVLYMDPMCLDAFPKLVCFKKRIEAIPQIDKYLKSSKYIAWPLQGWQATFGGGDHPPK
human FOXP3 tagged with 6 histidines at the C terminus (human), sequence (Q9BZS1 other isoform, or with tags, fused parts or gaps): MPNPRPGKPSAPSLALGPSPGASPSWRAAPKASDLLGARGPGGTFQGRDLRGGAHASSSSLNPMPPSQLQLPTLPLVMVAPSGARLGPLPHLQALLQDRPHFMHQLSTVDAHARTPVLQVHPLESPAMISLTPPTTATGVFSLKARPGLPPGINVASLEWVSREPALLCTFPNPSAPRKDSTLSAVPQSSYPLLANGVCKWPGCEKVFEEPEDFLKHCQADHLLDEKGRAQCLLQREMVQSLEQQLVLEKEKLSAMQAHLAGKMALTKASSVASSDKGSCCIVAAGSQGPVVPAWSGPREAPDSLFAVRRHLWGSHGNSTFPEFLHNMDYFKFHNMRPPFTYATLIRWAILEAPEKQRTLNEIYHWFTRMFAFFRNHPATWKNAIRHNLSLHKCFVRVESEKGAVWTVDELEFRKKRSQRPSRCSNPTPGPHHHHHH

Binder	Treg inhibition-% inhibition (100 µM) [1]	Ratio binding Peptide/p60 (fold change) [2]	Dimerization inhibition % inhibition [3]	Foxp3-Runx1 Inhibition % inhibition [4]	IC50 (µM) of inhibition of Treg activity, in vitro Treg suppression assay (murine Tconv + Treg, anti-CD3, [3H]-thymidine) [5]	Foxp3-Runx1 Inhibition % inhibition [6]	Dimerization inhibition % inhibition [7]
RAFQSFRKMWPFFAM [peptide of SEQ ID NO: 5]	347%	4.1 fold change	74.3%	76%			
RDFQSFRKMWAFFAM [peptide of SEQ ID NO: 30]	170%	1.1 fold change	81.3%	73.9%			
RDAQSFRKMWPFFAM [peptide of SEQ ID NO: 15]		1.1 fold change		55.6%			
RDFQAFRKMWPFFAM [peptide of SEQ ID NO: 19]	160%	1.1 fold change	89%	74.7%			
Ac-GR[dA]FQSFRKMWPFFAM-NH2 (SMILES CSCC[C@H](NC(=O)[C@H](C)NC(=O)[C@H](Cc1ccccc1)NC(=O)[C@H](Cc1ccccc1)NC(=O)[C@@H]1CCCN1C(=O)[C@H](Cc1c[nH]c2ccccc12)NC(=O)[C@H](CCSC)NC(=O)[C@H](CCCCN)NC(=O)[C@H](CCCNC(=N)N)NC(=O)[C@H](Cc1ccccc1)NC(=O)[C@H](CO)NC(=O)[C@H](CCC(N)=O)NC(=O)[C@H](Cc1ccccc1)NC(=O)[C@@H](C)NC(=O)[C@H](CCCNC(=N)N)NC(=O)CNC(C)=O)C(N)=O) [peptide of SEQ ID NO: 14]		3.6 fold change			12.5 µM	80%	90%
Ac-GR[dD]FQSFRKMWPFFAM-NH2 (SMILES CSCC[C@H](NC(=O)[C@H](C)NC(=O)[C@H](Cc1ccccc1)NC(=O)[C@H](Cc1ccccc1)NC(=O)[C@@H]1CCCN1C(=O)[C@H](Cc1c[nH]c2ccccc12)NC(=O)[C@H](CCSC)NC(=O)[C@H](CCCCN)NC(=O)[C@H](CCCNC(=N)N)NC(=O)[C@H](Cc1ccccc1)NC(=O)[C@H](CO)NC(=O)[C@H](CCC(N)=O)NC(=O)[C@H](Cc1ccccc1)NC(=O)[C@@H](CC(=O)O)NC(=O)[C@H](CCCNC(=N)N)NC(=O)CNC(C)=O)C(N)=O) [peptide of SEQ ID NO: 4]		4.2 fold change			13.4 µM		
[dR]AFQSFRKMWPFFA[dM] [peptide of SEQ ID NO: 48]		2.5 fold change			20 µM	70%	
RAFQSFRKMWPFFA[dM] [peptide of SEQ ID NO: 47]		1.7 fold change			35 µM	75%	
H-[dR]AFQSFRKMWPFFAM-OH (SMILES CSCC[C@H](NC(=O)[C@H](C)NC(=O)[C@H](Cc1ccccc1)NC(=O)[C@H](Cc1ccccc1)NC(=O)[C@@H]1CCCN1C(=O)[C@H](Cc1c[nH]c2ccccc12)NC(=O)[C@H](CCSC)NC(=O)[C@H](CCCCN)NC(=O)[C@H](CCCNC(=N)N)NC(=O)[C@H](Cc1ccccc1)NC(=O)[C@H](CO)NC(=O)[C@H](CCC(N)=O)NC(=O)[C@H](Cc1ccccc1)NC(=O)[C@H](C)NC(=O)[C@H](N)CCCNC(=N)N)C(=O)O) [peptide of SEQ ID NO: 46]		2.7 fold change			12.5 µM	95%	90%
RAFQAFRKMWPFFAM (head-to-tail cyclic: linker L is C(=O) between the N-terminal amino group of residue 1 and the alpha carbon of residue 15) [cyclic peptide SEQ ID NO: 50]		21.4 fold change			0.8 µM	60%	
RDFQSFRKMWPFFAM [p60 (peptide of SEQ ID NO: 1)]	116%	1 fold change	59.7%	54.5%	38.3 µM		
Ac-GRAFQAFRKMWAFFAM-NH2 [peptide of SEQ ID NO: 45]		8 fold change			3 µM		
Ac-GRDFQSFRKMWPFFAM-NH2 [peptide of SEQ ID NO: 2]		2.4 fold change					80%
